We go through two substances from patent publication US20110250165A1.

The target of experiment [1] is CXCR4 (Jurkat) (human) (UniProt P61073). Put plainly: FACS binding; Jurkat cells, % positive.
In experiment [2] the target is CF2ThCXCR4 (human) (UniProt P61073). The experiment in a line: FACS binding; CF2ThCXCR4 cells, % positive.
For experiment [3] the target is unchanged. The experiment in a line: FACS binding; CF2ThCXCR4 cells, MFI.
Experiment [4] concerns the target CXCR4 (Jurkat) (human) (UniProt P61073). Put plainly: FACS binding; Jurkat cells, MFI.
For a further experiment, the target named is 4442 CXCR2/CXCR4 chimera. The experiment in a line: FACS on 293T cells expressing CXCR4 variants.
For a further experiment, the target named is 2442 CXCR2/CXCR4 chimera. Put plainly: FACS on 293T cells expressing CXCR4 variants.
The target of experiment [5] is human CXCR4 (wild type) (human) (UniProt P61073). The experiment in a line: FACS on 293T cells expressing CXCR4 variants.
Chain of human CXCR4 (wild type) (human) (P61073 whole entry): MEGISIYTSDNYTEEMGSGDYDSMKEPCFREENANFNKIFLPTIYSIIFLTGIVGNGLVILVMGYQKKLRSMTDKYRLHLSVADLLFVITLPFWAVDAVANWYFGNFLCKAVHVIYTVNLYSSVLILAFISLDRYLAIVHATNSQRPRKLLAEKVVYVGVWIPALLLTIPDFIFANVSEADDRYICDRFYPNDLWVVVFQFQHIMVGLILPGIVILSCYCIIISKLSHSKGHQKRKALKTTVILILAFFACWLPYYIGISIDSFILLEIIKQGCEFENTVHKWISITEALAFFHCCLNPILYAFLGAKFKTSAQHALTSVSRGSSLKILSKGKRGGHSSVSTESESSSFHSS
For the next experiment, the target named is ΔN31-CXCR4 (human) (UniProt P61073). Put plainly: FACS on 293T cells expressing CXCR4 variants.
The next experiment concerns the target ΔN25-CXCR4 (human) (UniProt P61073). The experiment in a line: FACS on 293T cells expressing CXCR4 variants.
In experiment [6] the target is 2444b CXCR2/CXCR4 chimera (human) (UniProt P25025). Put plainly: FACS on 293T cells expressing CXCR4 variants.
Chain of 2444b CXCR2/CXCR4 chimera (human) (P25025 other isoform, or with tags, fused parts or gaps mutant limits assumed): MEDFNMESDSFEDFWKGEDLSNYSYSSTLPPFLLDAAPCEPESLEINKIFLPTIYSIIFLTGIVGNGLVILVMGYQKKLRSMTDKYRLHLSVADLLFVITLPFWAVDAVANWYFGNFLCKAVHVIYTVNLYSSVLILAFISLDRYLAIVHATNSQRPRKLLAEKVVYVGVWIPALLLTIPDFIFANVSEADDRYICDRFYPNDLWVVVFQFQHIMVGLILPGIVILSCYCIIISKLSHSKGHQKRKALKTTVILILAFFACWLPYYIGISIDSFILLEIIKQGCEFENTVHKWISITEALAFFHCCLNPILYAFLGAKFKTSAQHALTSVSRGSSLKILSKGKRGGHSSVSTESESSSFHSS

Chain of CXCR4 (Jurkat) (human) (P61073 whole entry): as the sequence (P61073 whole entry) above
Chain of CF2ThCXCR4 (human) (P61073 whole entry): as above

With 12G5, the EC50 with CXCR4 (Jurkat) (human) [1] is 0.06 µg/mL; in the experiment with CF2ThCXCR4 (human) [2], 0.005 µg/mL; with CF2ThCXCR4 (human) [3], 0.7 µg/mL; with CXCR4 (Jurkat) (human) [4] it was 16.9 µg/mL.

For the substance murine monoclonal antibody 12G5, the binding (+%) in the experiment with 4442 CXCR2/CXCR4 chimera came out at 103%; with 2442 CXCR2/CXCR4 chimera it was 85.8%; in experiment [5] it was 100%; with ΔN31-CXCR4 (human), 55.4%; in the experiment with ΔN25-CXCR4 (human) it was 69.2%; in experiment [6], 70.1%.
